From patent US20240018237A1 (SICHUAN KELUN BIOTECH BIOPHARMACEUTICAL, published 2024) come the findings set out here.

Test [1] concerns the target T1, human ROR1 (full-length, on the cell surface) (human, UniProt Q01973 30-937).
T1 construct: whole, on cells; the tumour cell lines carry their own ROR1; also called Ba/F3-ROR1 cells; Jeko-1
The test can be described thus: flow cytometry, A549 cells. For orientation: Flow cytometry measures light scatter and fluorescence of single cells or particles in a stream.

Test [2] has as its target T1, human ROR1 (full-length, on the cell …). The test can be described thus: flow cytometry, HT-29 cells.
Test [3] has the same target. Briefly: flow cytometry, Jeko-1 cells.
Test [4] shares this target. Briefly: flow cytometry, Ba/F3-ROR1 cells.

T1 sequence (Q01973 30-937): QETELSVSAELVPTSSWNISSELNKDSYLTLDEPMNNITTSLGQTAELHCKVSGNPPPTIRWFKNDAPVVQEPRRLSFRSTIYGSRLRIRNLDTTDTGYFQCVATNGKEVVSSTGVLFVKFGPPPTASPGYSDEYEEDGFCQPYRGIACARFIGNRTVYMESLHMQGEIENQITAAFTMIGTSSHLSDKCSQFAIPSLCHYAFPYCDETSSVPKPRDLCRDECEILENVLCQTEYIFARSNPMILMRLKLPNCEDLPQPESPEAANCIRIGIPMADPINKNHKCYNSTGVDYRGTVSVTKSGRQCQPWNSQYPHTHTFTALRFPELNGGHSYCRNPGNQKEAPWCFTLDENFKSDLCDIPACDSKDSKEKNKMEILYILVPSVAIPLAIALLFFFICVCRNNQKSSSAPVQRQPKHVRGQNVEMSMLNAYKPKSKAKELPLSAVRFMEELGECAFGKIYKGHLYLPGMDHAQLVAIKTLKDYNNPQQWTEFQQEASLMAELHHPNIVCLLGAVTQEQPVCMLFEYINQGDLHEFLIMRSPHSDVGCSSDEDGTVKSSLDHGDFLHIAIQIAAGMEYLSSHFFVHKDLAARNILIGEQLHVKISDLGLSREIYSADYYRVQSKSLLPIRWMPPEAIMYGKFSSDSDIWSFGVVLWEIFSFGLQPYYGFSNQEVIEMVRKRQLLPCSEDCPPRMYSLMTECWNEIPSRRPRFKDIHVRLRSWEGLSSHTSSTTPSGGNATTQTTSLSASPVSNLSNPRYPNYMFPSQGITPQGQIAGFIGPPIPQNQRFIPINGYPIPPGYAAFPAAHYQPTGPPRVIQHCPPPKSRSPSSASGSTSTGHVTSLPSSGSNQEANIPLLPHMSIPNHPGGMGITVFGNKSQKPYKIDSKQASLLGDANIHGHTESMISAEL

B1: 19F6-Hu35V8 (antibody, human IgG1, kappa, V domains shown)
VH: QVQLQESGPGLVKPSQTLSLTCTVSGYSITSDYAWNWIRQFPGKGLEWIGYISYSGSIRYNPSLKSRVTISRDTSKNQFSLKLSSVTAADTAVYYCARGEITYYFDYWGQGTLVTVSS
VL: ETTLTQSPAFMSATPGDKVTISCKASTDIDNDMNWYQQKPGKPPKLIISEGNTLRPGIPPRFSSSGYGTDFTFTINNIQSEDAATYYCLQSNDLPLTFGQGTKLEIKR
notes: humanized, human IgG1 / kappa
As usually defined, the EC50 is the concentration needed to bring the measured effect to its halfway point. A lower EC50 goes with higher potency in that assay. As for B1, the EC50 in test [1] is 90 pM; in test [2] it was 120 pM; in test [3], 180 pM; in test [4] it was 180 pM.

B2: 19F6-Hu22 (antibody, human IgG1, kappa, V domains shown)
VH: QVQLQESGPGLVKPSETLSLTCTVSGYSITSDYAWNWIRQPPGKGLEWMGYISYSGSIRYNPSLKDRITISRDTSKNQFSLKLSSVTAADTAVYYCARGEITYYFDYWGQGTLVTVSS
VL: DIQMTQSPSSLSASVGDRVTITCITTTDIDDDMNWYQQKPGKAPKLLISEGNTLQSGVPSRFSGSGYGTDFTLTISSLQPEDFATYYCLQSNDLPLTFGQGTKLEIKR
notes: humanized, human IgG1 / kappa
B2: the EC50 is 250 pM in test [1], 160 pM in test [2], 130 pM in test [3] and 300 pM in test [4].

B3: 19F6-Hu34 (antibody, human IgG1, kappa, V domains shown)
VH: QVQLQESGPGLVKPSQTLSLTCTVSGYSITSDYAWNWIRQFPGKGLEWIGYISYSGSIRYNPSLKSRVTISRDTSKNQFSLKLSSVTAADTAVYYCARGEITYYFDYWGQGTLVTVSS
VL: DIQMTQSPSSLSASVGDRVTITCQTSTDIDDDLNWYQQKPGKPPKLLISEGNTLETGVPSRFSGSGSGTDFTFTISSLQPEDIADYYCLQSNDLPLTFGAGTKLEIKR
notes: humanized, human IgG1 / kappa
For the molecule B3, the EC50 in test [1] was determined as 130 pM; in test [2], 190 pM; in test [3], 180 pM; in test [4] it was 530 pM.

B4: 19F6-Hu14 (antibody, human IgG1, kappa, V domains shown)
VH: QVQLQESGPGLVKPSETLSLTCTVTGYSITSDYAWNWIRQPPGKGLEWMGYISYSGSIRYKPSLKDRITISRDTSKNQFSLKLSSVTAADTAVYYCARGEITYYFDYWGQGTLVTVSS
VL: DIQMTQSPSSLSASVGDRVTITCQTSTDIDDDLNWYQQKPGKPPKLLISEGNTLETGVPSRFSGSGSGTDFTFTISSLQPEDIADYYCLQSNDLPLTFGAGTKLEIKR
notes: humanized, human IgG1 / kappa
Take B4: the EC50 in test [1] was determined as 120 pM; in test [2], 100 pM; in test [3] it was 120 pM; in test [4], 620 pM.

B5: 19F6-Hu31 (antibody, human IgG1, kappa, V domains shown)
VH: QVQLQESGPGLVKPSQTLSLTCTVSGYSITSDYAWNWIRQFPGKGLEWIGYISYSGSIRYNPSLKSRVTISRDTSKNQFSLKLSSVTAADTAVYYCARGEITYYFDYWGQGTLVTVSS
VL: DIQMTQSPSSLSASVGDRVTITCITTTDIDDDMNWYQQKPGKAPKLLISEGNTLRPGVPSRFSGSGYGTDFTLTISSLQPEDFATYYCLQSNDLPLTFGQGTKLEIKR
notes: humanized, human IgG1 / kappa
For the molecule B5, the EC50 in test [1] was 90 pM; in test [2] it was 100 pM; in test [3] it was 180 pM; in test [4], 300 pM.

B6: 19F6-Hu24 (antibody, human IgG1, kappa, V domains shown)
VH: QVQLQESGPGLVKPSETLSLTCTVSGYSITSDYAWNWIRQPPGKGLEWMGYISYSGSIRYNPSLKDRITISRDTSKNQFSLKLSSVTAADTAVYYCARGEITYYFDYWGQGTLVTVSS
VL: DIQMTQSPSSLSASVGDRVTITCQTSTDIDDDLNWYQQKPGKPPKLLISEGNTLETGVPSRFSGSGSGTDFTFTISSLQPEDIADYYCLQSNDLPLTFGAGTKLEIKR
notes: humanized, human IgG1 / kappa
On to B6, for which the EC50 was found to be 240 pM in test [1], 250 pM in test [2], 200 pM in test [3] and 390 pM in test [4].

B7: 19F6-Hu35V10 (antibody, human IgG1, kappa, V domains shown)
VH: QVQLQESGPGLVKPSQTLSLTCTVSGYSITSDYAWNWIRQFPGKGLEWIGYISYSGSIRYNPSLKSRVTISRDTSKNQFSLKLSSVTAADTAVYYCARGEITYYFDYWGQGTLVTVSS
VL: ETTLTQSPAFMSATPGDKVTISCKASTDIDSDMNWYQQKPGKPPKLIISEGNTLRPGIPPRFSSSGYGTDFTFTIRKIESEDAADYYCLQSNDLPLTFGQGTKLEIKR
notes: humanized, human IgG1 / kappa
Consider B7, for which the EC50 in test [1] turned out to be 120 pM; in test [2] it was 170 pM; in test [3], 350 pM; in test [4], 270 pM.

B8: 19F6-Hu11 (antibody, human IgG1, kappa, V domains shown)
VH: QVQLQESGPGLVKPSETLSLTCTVTGYSITSDYAWNWIRQPPGKGLEWMGYISYSGSIRYKPSLKDRITISRDTSKNQFSLKLSSVTAADTAVYYCARGEITYYFDYWGQGTLVTVSS
VL: DIQMTQSPSSLSASVGDRVTITCITTTDIDDDMNWYQQKPGKAPKLLISEGNTLRPGVPSRFSGSGYGTDFTLTISSLQPEDFATYYCLQSNDLPLTFGQGTKLEIKR
notes: humanized, human IgG1 / kappa
With B8, the EC50 came out at 170 pM in test [1], 80 pM in test [2], 150 pM in test [3] and 250 pM in test [4].

B9: 19F6-Hu13 (antibody, human IgG1, kappa, V domains shown)
VH: QVQLQESGPGLVKPSETLSLTCTVTGYSITSDYAWNWIRQPPGKGLEWMGYISYSGSIRYKPSLKDRITISRDTSKNQFSLKLSSVTAADTAVYYCARGEITYYFDYWGQGTLVTVSS
VL: DIQMTQSPSSLSASVGDRVTITCRASTDIDDDMNWYQQKPGKAPKLLIYEGNTLQSGVPSRFSGSGYGTDFTLTISSLQPEDFATYYCLQSNDLPLTFGQGTKLEIKR
notes: humanized, human IgG1 / kappa
With B9, the EC50 in test [1] stood at 470 pM; in test [2] it was 750 pM; in test [3], 170 pM; in test [4], 290 pM.

B10: 19F6-Hu35V9 (antibody, human IgG1, kappa, V domains shown)
VH: QVQLQESGPGLVKPSQTLSLTCTVSGYSITSDYAWNWIRQFPGKGLEWIGYISYSGSIRYNPSLKSRVTISRDTSKNQFSLKLSSVTAADTAVYYCARGEITYYFDYWGQGTLVTVSS
VL: ETTLTQSPAFMSATPGDKVTISCKASTSIDDDMNWYQQKPGKPPKLIISEGNTLRPGIPPRFSSSGYGTDFTFTIRKIESEDAADYYCLQSNDLPLTFGQGTKLEIKR
notes: humanized, human IgG1 / kappa
For the molecule B10, the EC50 turned out to be 140 pM in test [1], 170 pM in test [2], 280 pM in test [3] and 210 pM in test [4].

B11: 19F6-Hu23 (antibody, human IgG1, kappa, V domains shown)
VH: QVQLQESGPGLVKPSETLSLTCTVSGYSITSDYAWNWIRQPPGKGLEWMGYISYSGSIRYNPSLKDRITISRDTSKNQFSLKLSSVTAADTAVYYCARGEITYYFDYWGQGTLVTVSS
VL: DIQMTQSPSSLSASVGDRVTITCRASTDIDDDMNWYQQKPGKAPKLLIYEGNTLQSGVPSRFSGSGYGTDFTLTISSLQPEDFATYYCLQSNDLPLTFGQGTKLEIKR
notes: humanized, human IgG1 / kappa
Consider B11, for which the EC50 was found to be 140 pM in test [1], 620 pM in test [2], 210 pM in test [3] and 350 pM in test [4].

B12: 19F6-Hu32 (antibody, human IgG1, kappa, V domains shown)
VH: QVQLQESGPGLVKPSQTLSLTCTVSGYSITSDYAWNWIRQFPGKGLEWIGYISYSGSIRYNPSLKSRVTISRDTSKNQFSLKLSSVTAADTAVYYCARGEITYYFDYWGQGTLVTVSS
VL: DIQMTQSPSSLSASVGDRVTITCITTTDIDDDMNWYQQKPGKAPKLLISEGNTLQSGVPSRFSGSGYGTDFTLTISSLQPEDFATYYCLQSNDLPLTFGQGTKLEIKR
notes: humanized, human IgG1 / kappa
B12: the EC50 in test [1] is 90 pM; in test [2], 90 pM; in test [3], 180 pM; in test [4] it was 440 pM.

B13: 19F6-Hu21 (antibody, human IgG1, kappa, V domains shown)
VH: QVQLQESGPGLVKPSETLSLTCTVSGYSITSDYAWNWIRQPPGKGLEWMGYISYSGSIRYNPSLKDRITISRDTSKNQFSLKLSSVTAADTAVYYCARGEITYYFDYWGQGTLVTVSS
VL: DIQMTQSPSSLSASVGDRVTITCITTTDIDDDMNWYQQKPGKAPKLLISEGNTLRPGVPSRFSGSGYGTDFTLTISSLQPEDFATYYCLQSNDLPLTFGQGTKLEIKR
notes: humanized, human IgG1 / kappa
B13: the EC50 in test [1] was 310 pM; in test [2], 180 pM; in test [3], 220 pM; in test [4] it was 360 pM.

B14: 19F6-Hu33 (antibody, human IgG1, kappa, V domains shown)
VH: QVQLQESGPGLVKPSQTLSLTCTVSGYSITSDYAWNWIRQFPGKGLEWIGYISYSGSIRYNPSLKSRVTISRDTSKNQFSLKLSSVTAADTAVYYCARGEITYYFDYWGQGTLVTVSS
VL: DIQMTQSPSSLSASVGDRVTITCRASTDIDDDMNWYQQKPGKAPKLLIYEGNTLQSGVPSRFSGSGYGTDFTLTISSLQPEDFATYYCLQSNDLPLTFGQGTKLEIKR
notes: humanized, human IgG1 / kappa
Regarding B14, the EC50 in test [1] was 250 pM; in test [2], 780 pM; in test [3] it was 150 pM; in test [4] it was 350 pM.

B15: 19F6-Hu12 (antibody, human IgG1, kappa, V domains shown)
VH: QVQLQESGPGLVKPSETLSLTCTVTGYSITSDYAWNWIRQPPGKGLEWMGYISYSGSIRYKPSLKDRITISRDTSKNQFSLKLSSVTAADTAVYYCARGEITYYFDYWGQGTLVTVSS
VL: DIQMTQSPSSLSASVGDRVTITCITTTDIDDDMNWYQQKPGKAPKLLISEGNTLQSGVPSRFSGSGYGTDFTLTISSLQPEDFATYYCLQSNDLPLTFGQGTKLEIKR
notes: humanized, human IgG1 / kappa
In the case of B15, the EC50 was 160 pM in test [1], 110 pM in test [2], 170 pM in test [3] and 430 pM in test [4].
